Reference: publication PMC11187310, “Are there double knots in proteins? Prediction and in vitro verification based on TrmD-Tm1570 fusion from C. nitroreducens” (Frontiers in Molecular Biosciences, 2023)

Assays:
[1] = target: Tm1570 domain of CnTrmD-Tm1570 (residues 241-433) (Calditerrivibrio nitroreducens); assay: SEC; preparative Superdex 75 column; running buffer 50 mM Hepes, 300 mM NaCl, 10% glycerol, 1 mM TCEP, pH 7.4; proteins refolded from urea; oligomer state judged by retention volumes
[2] = target: the molecule itself; assay: as above

Tm1570 domain of CnTrmD-Tm1570 (residues 241-433) (domain or fragment)
stoichiometry N [1]: 2

B1: single-domain EcTrmD (enzyme, E. coli (from the label EcTrmD), UniProt P0A873 1-255, looked up)
chain: MWIGIISLFPEMFRAITDYGVTGRAVKNGLLSIQSWSPRDFTHDRHRTVDDRPYGGGPGMLMMVQPLRDAIHAAKAAAGEGAKVIYLSPQGRKLDQAGVSELATNQKLILVCGRYEGIDERVIQTEIDEEWSIGDYVLSGGELPAMTLIDSVSRFIPGVLGHEASATEDSFAEGLLDCPHYTRPEVLEGMEVPPVLLSGNHAEIRRWRLKQSLGRTWLRRPELLENLALTEEQARLLAEFKTEHAQQQHKHDGMA
notes: tRNA methyltransferase D (TrmD), single-domain protein, labelled EcTrmD; 28.4 kDa monomer; The printed monomer mass of 28.4 kDa fits the whole protein
binding result [2]: binds

B2: TrmD-Tm1570 fusion protein from Calditerrivibrio nitroreducens (enzyme, UniProt E4THH1 1-433, looked up)
chain: MKRYNVITIFPEMINEIFKYGVLSKGIDIGLFRVNPINLRDYTEDKHKTVDDYQYGGGHGLVMKPEPIYKAIADLKSKKDTHVVFLDPRGEQFTQKTAERLYNYDDITFVCGRYEGIDDRVRELMADEMISIGDFVITGGELAAVTIIDAVARLIPGVLGDENSPNEESFTTGLLEYPHFTRPAEFMGKKVPEVLISGNHEEIRRWRLTESIKTTLQNRPDMILRKSLSREEEQILWSLTRGVQRKYNIYVALMHYPMRDKEGKVVTTSITNMDLHDISRSCRTFGVKNYFVVNPMPAQREIASRVVRHWIKGYGATYNENRKEAFEYTIITDSLASVIKSIEEKESGSPIIIATTARYQQKAISIEKLKEIADRPILLLFGTGWGFVDDILEFADYVLKPIHGVGDFNHLSVRSAVAIYLDRINRSFQEDIL
notes: TrmD-Tm1570 (PF01746-PF09936 architecture) of Calditerrivibrio nitroreducens, UniProtKB E4THH1; full-length protein, residues 1-433 by the limits of the two truncated domains; 49.6 kDa monomer; Codon-optimized synthetic gene in pET28b; further details of the constructs are in SI Materials and Methods; also called CnTrmD-Tm1570; fusion TrmD-Tm1570
stoichiometry N [2]: 2

B3: TrmD domain of CnTrmD-Tm1570 (residues 1-240) (domain or fragment, Calditerrivibrio nitroreducens, UniProt E4THH1 1-240, looked up)
chain: MKRYNVITIFPEMINEIFKYGVLSKGIDIGLFRVNPINLRDYTEDKHKTVDDYQYGGGHGLVMKPEPIYKAIADLKSKKDTHVVFLDPRGEQFTQKTAERLYNYDDITFVCGRYEGIDDRVRELMADEMISIGDFVITGGELAAVTIIDAVARLIPGVLGDENSPNEESFTTGLLEYPHFTRPAEFMGKKVPEVLISGNHEEIRRWRLTESIKTTLQNRPDMILRKSLSREEEQILWSLT
notes: TrmD domain of TrmD-Tm1570 of Calditerrivibrio nitroreducens, UniProtKB E4THH1, residues 1-240; 27.5 kDa monomer; Truncated version of m1
stoichiometry N [2]: 2
